In the assay the target is Sso1pHT (yeast t-SNARE Sso1p without the Habc domain), labelled with Cy5 (yeast). Kind of assay: FRET or BRET. On the technique in general: Bioluminescence resonance energy transfer reports proximity on the nanometre scale.

“Snc2p (yeast v-SNARE), labelled with Cy3 (from UniProt P33328 1-115) (natural protein)” yielded an FRET efficiency of the single protein-protein complex (H) of 0.96.

Values taken from article PMC3773174.
